Measurements reported in patent US20210355185A1 (Xencor, published 2021).
Changes are numbered by the printed parent chain. Names may count otherwise. One block for each binder: values may come before it.

Experiments:
human PD-1-His = target: T1, human PD-1-His (human, UniProt Q15116 25-167, limits assumed); assay: Octet BLI; antibody captured on anti-human Fc (AHC) biosensors, dipped into PD-1-His
T1 construct: not shown: His tag

PD-1-His = target: T2, PD-1-His (UniProt Q15116 25-167, limits assumed); assay: Octet affinity screen; bivalent IgG1 format
T2 construct: Captured on HIS1K biosensors; not shown: His tag
T2 sequence (Q15116 25-167 limits assumed): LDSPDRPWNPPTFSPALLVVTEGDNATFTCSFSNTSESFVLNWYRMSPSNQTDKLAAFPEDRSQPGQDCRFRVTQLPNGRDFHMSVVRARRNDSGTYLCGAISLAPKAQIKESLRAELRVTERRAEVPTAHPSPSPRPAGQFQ
Text: We engineered affinity optimized variants of mAb C. A library of variants was constructed by standard mutagenesis to introduce point mutations into the variable heavy or variable light regions of XENP28536. Illustrative sequences are depicted in FIG. 70A-FIG. 70I (variable domain sequences).

T1 sequence (Q15116 25-167 limits assumed): as above

binding result (human PD-1-His): binds
B1: XENP28536 (antibody, human IgG1, kappa, V domains shown)
VH: EVQLVESGGGLVQPGGSLRLSCAASGFTFSSFGMHWVRQAPGKGLEWVSYISSGSSIIYYADSVKGRFTISRDNAKNSLYLQMNSLRAEDTAVYYCARGGRLVWSPDYWGQGTLVTVSS
VL: DIVMTQSPDSLAVSLGERATINCKSSQSLLNSGNQKNYLTWYQQKPGQPPKLLIYWASTRESGVPDRFTGSGSGTDFTLTISSLQAEDVAVYYCQNDYSYPFTFGSGTKLEIKR
notes: Format is bivalent human IgG1 with E233P/L234V/L235A/G236del/S267K; also called mAb C; mAb C[PD-1]_H1L1

fold improved affinity over WT (mAb C[PD-1]_H1L1) (PD-1-His): > 2 fold
B2: mAb C[PD-1]_H1_L1.1 (antibody, IgG1, V domains shown)
VH: B1 VH
VL: DIVMTQSPDSLAVSLGERATINCKSSQSLLHSGNQKNYLTWYQQKPGQPPKLLIYWASTRESGVPDRFTGSGSGTDFTLTISSLQAEDVAVYYCQNDYSYPFTFGSGTKLEIK

fold improved affinity over WT (mAb C[PD-1]_H1L1) (PD-1-His): > 2 fold
B3: mab_C[PD-1]_H1_L1.3 (antibody, IgG1, V domains shown)
VH: B1 VH
VL: B2 VL with H31S
